Results on 11 molecules are retold here after patent publication US20120108492A1, “LIGAND-SPECIFIC NON-ANTIBODY COMPOUNDS THAT INHIBIT CR2 ACTIVATION AND METHODS OF USE THEREOF” (The Regents of the University of Colorado, priority 2008, published 2012).

T1: wild-type MBP-CR2 SCR1-2 (human), P20023
T1 chain: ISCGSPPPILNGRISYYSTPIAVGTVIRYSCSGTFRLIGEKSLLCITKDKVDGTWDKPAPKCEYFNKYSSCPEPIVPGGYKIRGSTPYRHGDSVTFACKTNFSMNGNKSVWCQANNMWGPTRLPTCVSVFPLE

B1: peptide EBV gp350 cp1 (peptide)
peptide: CSEGSLKGC
modifications: not checked
B2: peptide C3dp2 (peptide)
peptide: ISTSNPRHHSTA
modifications: not checked
B3: peptide C3dp2.3 (peptide)
peptide: IATANPRHHSTA
modifications: not checked
B4: peptide C3dp2.1 (peptide)
peptide: ISTSNPRAASTA
modifications: not checked
B5: peptide C3dp1 (peptide)
peptide: APQHLSSQYSRT
modifications: not checked
B6: peptide C3dp1.2 (peptide)
peptide: TRSYQSSLHQPA
modifications: not checked
B7: peptide C3dp1.3 (peptide)
peptide: APQHLSSQ
modifications: not checked
B8: peptide C3dp1.1 (peptide)
peptide: APQALSSQYSRT
modifications: not checked
B9: peptide C3dcp1.1 (peptide)
peptide: DPKNHVH
modifications: not checked
B10: control peptide (peptide)
peptide: APAHLSSQ
modifications: not checked
B11: peptide C3dp2.2 (peptide)
peptide: ISTSNPRH
modifications: not checked

One experiment addresses T1, wild-type MBP-CR2 SCR1-2 (human), P20023.
Assay: not given
One may read the IC50 as the midpoint of a concentration-inhibition curve. Take B1: the IC50 was 150 µM.

Another experiment has the same target. Put plainly: competition ELISA: C3d on plate, MBP-CR2 SCR1-2 with increasing peptide, ⅓×PBS. A general note: ELISA stands for enzyme-linked immunosorbent assay.
In turn, B2 registered a 50% inhibitory concentration (IC50) of 450 µM.
Same read-out and setting: for B3 the value was 160 µM; for B4, 150 µM; for B5, 100 µM.
In turn, B6 came in with an IC50 of 70 µM.
On to B7, for which the IC50 was 40 µM.
Consider B8, for which the IC50 came out at 70 µM.
In turn, B9 returned a 50% inhibitory concentration (IC50) of 95 µM.
In turn, B10 registered an IC50 of 700 µM.
Same read-out and setting: next, B11: 190 µM.
